In patent US20260217793A1 (Chugai, published 2026):
Where a chain is given by its changes, count along the chain named.

Tests used:
human FcγRIIb = target: T1, human FcγRIIb (human, UniProt P31994 43-217); experiment: SPR, amount bound per captured antibody
T1 sequence (looked up): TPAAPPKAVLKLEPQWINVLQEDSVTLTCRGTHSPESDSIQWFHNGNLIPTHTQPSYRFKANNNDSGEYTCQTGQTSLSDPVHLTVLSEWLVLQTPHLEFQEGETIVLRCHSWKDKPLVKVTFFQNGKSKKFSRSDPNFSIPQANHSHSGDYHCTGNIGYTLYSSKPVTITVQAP

human FcγRIIa type R = target: T2, human FcγRIIa type R (human, UniProt P12318 34-217); experiment: SPR, amount bound per captured antibody
T2 sequence (looked up): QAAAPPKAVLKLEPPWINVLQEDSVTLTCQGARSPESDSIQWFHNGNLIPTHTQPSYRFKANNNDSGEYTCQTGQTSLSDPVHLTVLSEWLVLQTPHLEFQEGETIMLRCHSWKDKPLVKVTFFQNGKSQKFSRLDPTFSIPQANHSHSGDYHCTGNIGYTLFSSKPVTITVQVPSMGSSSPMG

FcγRIIIa type V = FcγRIIIa type V (human, UniProt P08637 17-208); experiment: SPR
FcγRIIa type R = target: T3, FcγRIIa type R (human, UniProt P12318 34-217); experiment: SPR
T3 sequence (looked up): T2 sequence (looked up)

FcγRIa = FcγRIa (human, UniProt P12314 16-292); experiment: SPR
FcγRIIa type H = target: T4, FcγRIIa type H (human, UniProt P12318 34-217); experiment: SPR
T4 sequence (looked up): T2 sequence (looked up) with R134H

FcγRIIb = target: T5, FcγRIIb (human, UniProt P31994 43-217); experiment: SPR
T5 sequence (looked up): T1 sequence (looked up)

human IgA (hIgA) = experiment: SPR, comparison of calcium conditions

Chain of FcγRIIIa type V (P08637 17-208 F176V): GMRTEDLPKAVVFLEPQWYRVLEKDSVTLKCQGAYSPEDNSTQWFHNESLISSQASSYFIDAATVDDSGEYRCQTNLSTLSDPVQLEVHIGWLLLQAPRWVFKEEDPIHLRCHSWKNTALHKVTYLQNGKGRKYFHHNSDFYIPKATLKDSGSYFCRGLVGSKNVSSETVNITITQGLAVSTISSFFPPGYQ
Chain of FcγRIa (P12314 16-292): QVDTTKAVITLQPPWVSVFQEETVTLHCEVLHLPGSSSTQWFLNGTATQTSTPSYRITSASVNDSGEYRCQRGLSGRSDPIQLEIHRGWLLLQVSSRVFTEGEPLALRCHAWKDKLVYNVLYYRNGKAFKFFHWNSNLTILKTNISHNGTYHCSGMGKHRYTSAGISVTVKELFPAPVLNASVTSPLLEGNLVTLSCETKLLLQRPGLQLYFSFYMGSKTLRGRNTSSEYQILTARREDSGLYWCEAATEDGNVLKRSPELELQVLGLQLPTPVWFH

B1: IL6R-F652/IL6R-L (antibody, human IgG1, kappa)
heavy: QVQLQESGPGLVKPSETLSLTCAVSGHSISHDHAWSWVRQPPGEGLEWIGFISYSGITNYNPSLQGRVTISRDNSKNTLYLQMNSLRAEDTAVYYCARSLARTTAMDYWGEGTLVTVSSASTKGPSVFPLAPSSKSTSGGTAALGCLVKDYFPEPVTVSWNSGALTSGVHTFPAVLQSSGLYSLSSVVTVPSSSLGTQTYICNVNHKPSNTKVDKKVEPKSCDKTHTCPPCPAPELLGGDSVFLFPPKPKDTLYISRTPEVTCVVVDVSHEDPEVKFNWYVDGVEVHNAKTKPREEQYNSTYRVVSVLTVLHQDWLNGKEYKCKVSNKALPAPIEKTISKAKGQPREPQVYTLPPSRDELTKNQVSLTCLVKGFYPSDIAVEWESNGQPENNYKTTPPVLDSDGSFFLYSKLTVDKSRWQQGNVFSCSVMHEALHYHYTQKSLSLSP
light: not shown
B1 was tested, and the “relative binding activity (IL6R-F652/IL6R-L = 100)” value (human FcγRIIb) was 100 and the “relative binding activity (IL6R-F652/IL6R-L = 100)” value (human FcγRIIa type R) was 100.

B2: IL6R-BP198/IL6R-L (antibody, human IgG1, kappa)
heavy: B1 heavy with E235D, L236Y, Y254M, H270D, P273G, K328A, A332K, Y436N, K441E
light: not shown
For B2, the relative binding activity (FcγRIIIa type V) was 157 % of control, the relative binding activity (FcγRIIa type R) was 449 % of control and the relative binding activity (FcγRIa) was 104 % of control. The relative binding activity (FcγRIIa type H) was 188 % of control and the relative binding activity (FcγRIIb) was 164 % of control.

B3: GA2-IgG1 (antibody, V domains shown)
VH: QVQLVQSGAEVKKPGSSVKVSCKASGGTFSSYAISWVRQAPGQGLEWMGGIIPIFGTANYAQKFQGRVTITADESTSTAYMELSSLRSEDTAVYYCARPRWETAISSDAFDIWGQGTMVTVSS
VL: DIQMTQSPSSLSASVGDRVTITCRASQSISDDLNWYQQKPGKAPKLLIYEASNLQSGVPSRFSGSGSGTDFTLTISSLQPEDFATYYCQQHSSSPLTFGQGTKVEIKR
With B3 the “Ca-dependent hIgA-binding activity (fold)” value (human IgA (hIgA)) was no less than 100 fold.
